Results published in patent publication US20190100602A1 (INSERM INSTITUT NATIONAL DE LA SANT ET DE LA RECHERCHE M …, published 2019).
Like-named read-outs stand apart in the source and are kept apart here.

Tests used:
[1] = target: T1, human antithrombin (human, UniProt P01008 33-464); test: cell-based or functional assay
[2] = target: T1, human antithrombin; test: cell-based or functional assay; remark: listed apart in the source
[3] = target: T1, human antithrombin; test: cell-based or functional assay; remark: listed apart in the source
[4] = target: T1, human antithrombin; test: cell-based or functional assay; remark: listed apart in the source
[5] = target: T1, human antithrombin; test: cell-based or functional assay; remark: listed apart in the source
[6] = target: T1, human antithrombin; test: BLI (Octet-QK), sdAb coupled to sensor, antithrombin 12.5-50 ug/ml; apparent KD
Protocol: The interaction between sdAbs KB-AT-001, KB-AT-002, KB-AT-003 and KB-AT-006 versus human antithrombin was further analyzed via biolayer-interferometry analysis using Octet-QK equipment in order to determine apparent dissociation constants (KD,app). To this end, sdAbs KB-AT-001, KB-AT-002, KB-AT-003 and KB-AT-006 were diluted in 0.1 M Mes (pH 5.0) to a concentration of 200 microgram/ml for coupling to EDC/NHS-activated amine-reactive biosensors (Fort6bio, Menlo Park, Calif., USA). Sensors were rehydrated in 0.2 ml 0.1 M MES, pH 5.0 for 300 sec. Sensors were then activated via incubation with 0.1 ml 0.2 M EDC/0.095 M NHS mixture for 300 sec and subsequently incubated with 0.1 ml sdAb-solution for 600 sec. […] Following this association phase, sensors were transferred to wells containing PBS-T and incubated for 900 sec, allowing dissociation of the antithrombin-sdAb complex. Obtained data were subsequently analyzed using Octet-QK data analysis software (Origin vs 4) to estimate KD,app.

[7] = target: T2, rabbit antithrombin (rabbit); test: ELISA, sdAb coated, plasma 1/4, bound antithrombin probed with polyclonal anti-antithrombin
T2 construct: Native protein in plasma diluted 1/4; also called rabbit AT; antithrombin in rabbit plasma
Protocol: (§1) sdAbs KB-AT-001, -002. -003, -004, -005, -006, and -007 were immobilized (10 microgram/ml) in 10 mM NaHCO₃, 50 mM Na2CO3 (pH 9.5) in a volume of 50 microliter in half-well microtiter plates (Greiner Bio-One, Les Ulis, France) for 16 h at 4° C. As a positive control, polyclonal anti-antithrombin antibodies (MATIII-EIA kit, Affinity biologicals, Ancaster Canada) were immobilized in a similar fashion. As a negative control, the anti-von Willebrand sdAb KB-VWF-006 was immobilized. After washing the wells three times with 100 microliter/well using Tris-buffered saline (pH 7.6) supplemented with 0.1% Tween-20 (TBS-T), wells were blocked with 100 microliter/well of TBS-T supplemented with 3% bovine serum albumin (BSA) for 30 min at 37° C. Wells were washed as described above, and subsequently the following plasma preparations (diluted ¼ in TBS-T/3% BSA, 100 microliter per well, 2 hours at 37° C.) were added to each of the immobilized sdAbs and both types of control wells: rabbit plasma, canine plasma, simian plasma, bovine plasma, porcine plasma, rat plasma, murine plasma and human plasma.
(§2) Wells were then washed three times with 100 microliter/well using TBS-T. Bound antithrombin was probed with peroxidase-labeled polyclonal anti-antithrombin antibodies (MATIII-EIA kit, Affinity biologicals, Ancaster Canada; diluted 1/100) for 2 hours at 37° C. with 50 microliter per well. Wells were then washed three times with 100 microliter/well using TBS-T. Residual peroxidase activity was detected by measuring peroxidase-mediated hydrolysis of 3,3′,5,5′-tetramethylbenzidine.
(§3) Negative binding (−) was defined as optical density (OD) being ≤0.1, moderate positive binding (+) was defined as OD being >0.1 and <0.5, strongly positive binding (++) was defined as OD being ≥0.5. […] All plasma preparations had moderate or strongly positive binding to the positive control (polyclonal anti-antithrombin antibodies).

[8] = target: T3, bovine antithrombin (bovine, UniProt P41361 33-465); test: as above
T3 construct: Native protein in plasma diluted 1/4; also called bovine AT; antithrombin in bovine plasma
T3 sequence (P41361 33-465): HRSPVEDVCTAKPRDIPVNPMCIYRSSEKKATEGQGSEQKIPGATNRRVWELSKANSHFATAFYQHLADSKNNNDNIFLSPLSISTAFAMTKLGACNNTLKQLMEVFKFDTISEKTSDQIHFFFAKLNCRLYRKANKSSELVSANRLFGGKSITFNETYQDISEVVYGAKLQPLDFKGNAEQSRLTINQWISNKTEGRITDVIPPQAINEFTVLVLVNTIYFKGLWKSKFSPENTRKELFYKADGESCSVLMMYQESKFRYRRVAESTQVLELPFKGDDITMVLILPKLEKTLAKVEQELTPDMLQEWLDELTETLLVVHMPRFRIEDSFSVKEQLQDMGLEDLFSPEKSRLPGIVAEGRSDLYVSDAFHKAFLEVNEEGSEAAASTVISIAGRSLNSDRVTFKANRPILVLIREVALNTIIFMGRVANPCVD
Protocol: as §1, §2, §3

[9] = target: T4, porcine antithrombin (porcine); test: as above
T4 construct: Native protein in plasma diluted 1/4; also called porcine AT; antithrombin in porcine plasma
Protocol: as §1, §2, §3

[10] = target: T5, canine antithrombin (canine); test: ELISA, sdAb coated, plasma 1/4, bound antithrombin probed with polyclonal anti-antithrombin; grade by OD
T5 construct: Native protein in plasma diluted 1/4; also called canine AT; antithrombin in canine plasma
Protocol: as §1, §2, §3

[11] = target: T6, simian antithrombin (simian); test: as above
T6 construct: Native protein in plasma diluted 1/4; also called simian AT; antithrombin in simian plasma
Protocol: as §1, §2, §3

[12] = target: T7, rat antithrombin (rat, UniProt Q8VHJ4); test: as above
T7 construct: Native protein in plasma diluted 1/4; also called rat AT; antithrombin in rat plasma
Protocol: as §1, §2, §3

[13] = target: T1, human antithrombin; test: as above
Protocol: as §1, §2, §3

[14] = target: T8, murine antithrombin (mouse, UniProt P32261 33-465); test: as above
T8 construct: also called mouse antithrombin; murine AT
T8 sequence (P32261 33-465 limits assumed): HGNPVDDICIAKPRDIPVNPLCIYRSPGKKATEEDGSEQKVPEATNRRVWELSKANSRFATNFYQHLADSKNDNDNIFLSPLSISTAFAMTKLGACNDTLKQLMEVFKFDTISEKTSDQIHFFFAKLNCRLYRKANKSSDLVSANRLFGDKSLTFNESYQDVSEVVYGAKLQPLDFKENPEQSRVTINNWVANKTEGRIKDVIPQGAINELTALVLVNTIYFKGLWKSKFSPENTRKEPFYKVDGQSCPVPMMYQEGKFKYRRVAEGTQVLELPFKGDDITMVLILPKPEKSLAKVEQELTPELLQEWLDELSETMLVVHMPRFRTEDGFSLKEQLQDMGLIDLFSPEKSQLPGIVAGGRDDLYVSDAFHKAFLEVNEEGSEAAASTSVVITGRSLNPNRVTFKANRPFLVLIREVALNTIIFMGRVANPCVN
Protocol: as §1, §2, §3

T1 sequence (P01008 33-464 limits assumed): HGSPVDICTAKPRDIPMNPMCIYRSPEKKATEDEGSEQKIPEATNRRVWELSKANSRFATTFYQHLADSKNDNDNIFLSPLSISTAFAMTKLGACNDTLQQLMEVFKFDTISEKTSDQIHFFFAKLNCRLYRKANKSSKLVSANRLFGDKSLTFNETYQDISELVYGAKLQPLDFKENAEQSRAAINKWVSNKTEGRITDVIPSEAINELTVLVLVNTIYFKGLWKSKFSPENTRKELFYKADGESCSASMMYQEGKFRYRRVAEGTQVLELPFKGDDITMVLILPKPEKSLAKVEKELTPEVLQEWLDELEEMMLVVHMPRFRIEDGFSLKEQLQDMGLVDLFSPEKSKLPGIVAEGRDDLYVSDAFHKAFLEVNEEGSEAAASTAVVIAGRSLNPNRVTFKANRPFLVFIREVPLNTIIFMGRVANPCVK

Binder | % antithrombin neutralization (thrombin amidolytic activity on S-2238, with unfractionated heparin) [1] | % antithrombin neutralization (factor Xa amidolytic activity on S-2765, with LMW-heparin) [2] | % antithrombin neutralization (thrombin amidolytic activity on S-2238, with unfractionated heparin) [3] | also measured
KB-AT-001/003 (bispecific antibody) QVQLQESGGGLVQAGGSLRLSCAASGRTFRNYVMGWFRQAPGKDPEFIAGINRSGAITYYGDSVKGRFTISRDNAKNTVSLQMNSLEPEDTAVYYCAAGETTWSIRRDDYDYWGQGTQVTVSSGGGSGGGSGGGSGGGSQVQLQESGGGLVQPGGSLRLSCAASALTFSSRAWAWYRQAPGKQRELVASITGGGTTNYADSVKGRFTISRDNAKNTVYLQMNSLKPEDTAVHYCNGYRYTYAWGQGTQVTQVTVSS | 56% | 62% |  | 
KB-AT-115 (other) QVQLQESGGGLVQAGGSLRLSCAASGRTFRNYVMGWFRQAPGKDPEFIAGINRSGAITYYGDSVKGRFTISRDNAKNTVSLQMNSLEPEDTAVYYCAAGETTWSIRRDDYDYWGQGTQVTVSSGGGSGGGSGGGSGGGSQVQLQESGGGLVQAGGSLRLSCAASGRTFRNYVMGWFRQAPGKDPEFIAGINRSGAITYYGDSVKGRFTISRDNAKNTVSLQMNSLEPEDTAVYYCAAGETTWSIRRDDYDYWGQGTQVTVSSGGGSGGGSGGGSGGGSEVQLVESGGGLVQPGGSLRLSCEASGRDFNDAALGWSRQVPGKARETVAMITSGGVRNYAETVKDRFTISRDNAKNTVYLDMNNLQPDDTGVYYCKADSFKGDYDTSWYLYWGQGTQVTVSS |  |  | 26% | 
KB-AT-001/005 (other) QVQLQESGGGLVQAGGSLRLSCAASGRTFRNYVMGWFRQAPGKDPEFIAGINRSGAITYYGDSVKGRFTISRDNAKNTVSLQMNSLEPEDTAVYYCAAGETTWSIRRDDYDYWGQGTQVTVSSGGGSGGGSGGGSGGGSEVQLVESGGGLVQPGGSLRLSCEASGRDFNDAALGWSRQVPGKARETVAMITSGGVRNYAETVKDRFTISRDNAKNTVYLDMNNLQPDDTGVYYCKADSFKGDYDTSWYLYWGQGTQVTVSS | 28% | 34% |  | 
KB-AT-113 (bispecific antibody) QVQLQESGGGLVQAGGSLRLSCAASGRTFRNYVMGWFRQAPGKDPEFIAGINRSGAITYYGDSVKGRFTISRDNAKNTVSLQMNSLEPEDTAVYYCAAGETTWSIRRDDYDYWGQGTQVTVSSGGGSGGGSGGGSGGGSQVQLQESGGGLVQAGGSLRLSCAASGRTFRNYVMGWFRQAPGKDPEFIAGINRSGAITYYGDSVKGRFTISRDNAKNTVSLQMNSLEPEDTAVYYCAAGETTWSIRRDDYDYWGQGTQVTVSSGGGSGGGSGGGSGGGSQVQLQESGGGLVQPGGSLRLSCAASALTFSSRAWAWYRQAPGKQRELVASITGGGTTNYADSVKGRFTISRDNAKNTVYLQMNSLKPEDTAVHYCNGYRYTYAWGQGTQVTQVTVSS |  |  | 97% | 
KB-AT-112 (bispecific antibody) QVQLQESGGGLVQAGGSLRLSCAASGRTFRNYVMGWFRQAPGKDPEFIAGINRSGAITYYGDSVKGRFTISRDNAKNTVSLQMNSLEPEDTAVYYCAAGETTWSIRRDDYDYWGQGTQVTVSSGGGSGGGSGGGSGGGSQVQLQESGGGLVQAGGSLRLSCAASGRTFRNYVMGWFRQAPGKDPEFIAGINRSGAITYYGDSVKGRFTISRDNAKNTVSLQMNSLEPEDTAVYYCAAGETTWSIRRDDYDYWGQGTQVTVSSGGGSGGGSGGGSGGGSQVQLVQSGGGLVQAGGSLRLSCAASGRTFNNNGMGWFRQAPGKEREFVAAISWSGGSTYYADSVKGRYIMSRDNAKNTVYLQMNSLKPEDTAVYYCAARTRYNSGLFSRNYDYWGQGTQVTVSS |  |  | 29% | 
KB-AT-001/002 (bispecific antibody) QVQLQESGGGLVQAGGSLRLSCAASGRTFRNYVMGWFRQAPGKDPEFIAGINRSGAITYYGDSVKGRFTISRDNAKNTVSLQMNSLEPEDTAVYYCAAGETTWSIRRDDYDYWGQGTQVTVSSGGGSGGGSGGGSGGGSQVQLVQSGGGLVQAGGSLRLSCAASGRTFNNNGMGWFRQAPGKEREFVAAISWSGGSTYYADSVKGRYIMSRDNAKNTVYLQMNSLKPEDTAVYYCAARTRYNSGLFSRNYDYWGQGTQVTVSS | 30% | 57% |  | 
KB-AT-1123 (bispecific antibody) QVQLQESGGGLVQAGGSLRLSCAASGRTFRNYVMGWFRQAPGKDPEFIAGINRSGAITYYGDSVKGRFTISRDNAKNTVSLQMNSLEPEDTAVYYCAAGETTWSIRRDDYDYWGQGTQVTVSSGGGSGGGSGGGSGGGSQVQLQESGGGLVQAGGSLRLSCAASGRTFRNYVMGWFRQAPGKDPEFIAGINRSGAITYYGDSVKGRFTISRDNAKNTVSLQMNSLEPEDTAVYYCAAGETTWSIRRDDYDYWGQGTQVTVSSGGGSGGGSGGGSGGGSQVQLVQSGGGLVQAGGSLRLSCAASGRTFNNNGMGWFRQAPGKEREFVAAISWSGGSTYYADSVKGRYIMSRDNAKNTVYLQMNSLKPEDTAVYYCAARTRYNSGLFSRNYDYWGQGTQVTVSSGGGSGGGSGGGSGGGSQVQLQESGGGLVQPGGSLRLSCAASALTFSSRAWAWYRQAPGKQRELVASITGGGTTNYADSVKGRFTISRDNAKNTVYLQMNSLKPEDTAVHYCNGYRYTYAWGQGTQVTQVTVSS |  |  | 99% | 
KB-AT-002/003 (bispecific antibody) QVQLQESGGGLVQAGGSLRLSCAASGRTFNNNGMGWFRQAPGKEREFVAAISWSGGSTYYADSVKGRYIMSRDNAKNTVYLQMNSLKPEDTAVYYCAARTRYNSGLFSRNYDYWGQGTQVTVSSGGGSGGGSGGGSGGGSQVQLQESGGGLVQPGGSLRLSCAASALTFSSRAWAWYRQAPGKQRELVASITGGGTTNYADSVKGRFTISRDNAKNTVYLQMNSLKPEDTAVHYCNGYRYTYAWGQGTQVTVSS | 47% | 68% |  | 
KB-AT-003 (VHH, Monovalent anti-antithrombin single-domain antibody; also called sdAb KB-AT-003) VHH: QVQLVQSGGGLVQPGGSLRLSCAASALTFSSRAWAWYRQAPGKQRELVASITGGGTTNYADSVKGRFTISRDNAKNTVYLQMNSLKPEDTAVHYCNGYRYTYAWGQGTQVTVSS |  |  |  | percentage of neutralization of antithrombin-mediated factor Xa inhibition, with LMW-heparin [4]: < 15%; percentage of neutralization of antithrombin-mediated thrombin inhibition, with unfractionated heparin [4]: < 5%; % antithrombin neutralization (thrombin amidolytic activity on S-2238, no heparin) [5]: 67%; Kd [6]: 0.4 nM; OD [7]: ≤ 0.1 od; OD [8]: ≤ 0.1 od; OD [9]: ≤ 0.1 od; OD [10]: 0.1 to 0.5 od; OD [11]: ≥ 0.5 od; OD [12]: 0.1 to 0.5 od; OD [13]: ≥ 0.5 od; OD [14]: ≥ 0.5 od
